Square brackets hold non-standard residues; d marks the D form. Ends that are not written are not given here. Arg(Me2a) = CN(C)C(=N)NCCC[C@H](N)C(=O)O; Lys(Me3) = C[N+](C)(C)CCCC[C@H](N)C(=O)O; Arg(Me2s) = CN=C(NC)NCCC[C@H](N)C(=O)O; Arg(Me) = CNC(=N)NCCC[C@H](N)C(=O)O
Tests used:
[1] = molecular target: Human Spindlin1 50–262 (SPIN1_(50–262)) (human) (UniProt Q9Y657); test: ITC
SPIN1_50–262 = SPIN1_50–262 (Homo sapiens, UniProt Q9Y657); test: ITC of SPIN1_50–262 with synthetic peptides; format: binding; settings: relative to H3 K4me3–R8me2a
[2] = molecular target: bulky arginine mutations of residues W72, Y98, and F251; test: ITC
[3] = molecular target: T1, Human Spindlin1 50–262 (SPIN1_(50–262)) (human, UniProt Q9Y657 50-262); test: ITC
[4] = molecular target: T1, Human Spindlin1 50–262 (SPIN1_(50–262)); test: thermo-fluor stability assay
SPIN1_(50–262) E142A = SPIN1_(50–262) E142A (human, UniProt Q9Y657 50-262, E142A); test: ITC
SPIN1_(50–262) D184A = SPIN1_(50–262) D184A (human, UniProt Q9Y657 50-262, D184A); test: ITC
Chain of SPIN1_(50–262) D184A (Q9Y657 50-262 D184A): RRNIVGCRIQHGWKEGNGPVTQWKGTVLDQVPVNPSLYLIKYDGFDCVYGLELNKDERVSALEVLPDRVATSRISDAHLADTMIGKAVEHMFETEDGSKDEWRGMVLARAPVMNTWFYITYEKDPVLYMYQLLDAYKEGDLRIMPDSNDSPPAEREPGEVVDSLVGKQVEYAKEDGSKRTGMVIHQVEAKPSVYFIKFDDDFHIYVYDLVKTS

T1 sequence (Q9Y657 50-262): as the sequence (Q9Y657 50-262 D184A) above, with A135D counted along it
Chain of Human Spindlin1 50–262 (SPIN1_(50–262)) (human) (Q9Y657 50-262): as the sequence (Q9Y657 50-262 D184A) above, with A135D counted along it
Chain of SPIN1_50–262 (Q9Y657 50-262): as the sequence (Q9Y657 50-262 D184A) above, with A135D counted along it
Chain of SPIN1_(50–262) E142A (Q9Y657 50-262 E142A): as the sequence (Q9Y657 50-262 D184A) above, with E93A, A135D counted along it

H3 K4me2–R8me2a peptide
Kd [1]: 510 nM

C[C@H](N)C(=O)N[C@@H](CCCNC(=N)N)C(=O)N[C@H](C(=O)N[C@@H](CCCCN(C)C)C(=O)N[C@@H](CCC(N)=O)C(=O)N[C@H](C(=O)N[C@@H](C)C(=O)N[C@@H](CCCNC(=N)N(C)C)C(=O)N[C@@H](CCCCN)C(=O)N[C@@H](CO)C(=O)O)[C@@H](C)O)[C@@H](C)O [K4me2–R8me2a]
affinity reduction upon loss of one methyl group (SPIN1_50–262): ~10 fold

H3_(1–10)K4me3R8me2a peptide (from UniProt P68431 2-11)
fold drop of affinity against wild-type SPIN1(50–262) [2]: 10 to 40 fold

ART[Lys(Me3)]QTA[Arg(Me)]KS [H3_(1–10)K4me3R8me1 peptide]
Kd [3]: ~139 nM

ART[Lys(Me3)]QTARKS [H3_(1–10)K4me3 peptide]
Kd [3]: ~147 nM
reduction of Tm against H3(1–10)K4me3R8me2a [4]: 4 °C

ART[Lys(Me3)]QTA[Arg(Me2s)]KS [H3_(1–10)K4me3R8me2s peptide]
reduction of Tm against H3(1–10)K4me3R8me2a [4]: 2 °C

ART[Lys(Me3)]QTA[Arg(Me2a)]KS (peptide, UniProt P68431 2-11, looked up) [H3_(1–10)K4me3R8me2a peptide]
fold reduction of binding affinity against wild-type SPIN1(50–262) (SPIN1_(50–262) E142A): ~3 fold
fold reduction of binding affinity against wild-type SPIN1(50–262) (SPIN1_(50–262) D184A): ~90 fold
Tm of SPIN1(50–262) with the peptide [4]: 63.5 °C

RRKKKCVRYIQG [TCF4_(458–469) peptide]
Kd [3]: 3900 nM

Reference: publication PMC3967050 (Genes & Development, 2014)
